Measured values reported in patent US11957762B2, “Immune tolerant and non-immune tolerant elastin-like recombinant peptides and methods of use” (University of Utah Research Foundation, priority 2015, dated 2024).

Columns and labels:
[1] = Hydrodynamic diameter by dynamic light scattering (DLS); assay type: physicochemical; parameters: Stability: key to the marks not given beside the values
Experimental: Characterization of the size of iTEPB-pOVA and iTEPB-iTEPA-pOVA fusions. The particle size distribution of the iTEP fusions was determined by dynamic light scattering (DLS) using a Zetasizer Nano-ZS instrument (Malvern Instruments, Malvern, UK) as previously described.^(29) The fusions were prepared at 5 μM and 25 μM in PBS and equilibrated at 37° C. for the measurement. The reported results represented the average particle size by number.
Dynamic light scattering (DLS) measurement. The measurement was carried out as previously described. iTEP, iTEP-MPBH-ABA-Sali conjugate, or PTX NP were measured at 25 μM in PBS at 37° C. using a Malvern Zetasizer Nano system (Malvern, Chester County, PA, USA).
Characterization of hydrodynamic diameters of iTEP-vaccine fusions. Hydrodynamic diameters of iTEP-vaccine fusions were determined by dynamic light scattering (DLS) using a Zetasizer Nano-ZS instrument (Malvern Instruments, Malvern, UK) as previously described (Zhao et al., Mol Pharm, 2014; 11(8):2703-12). The samples were resuspended at concentrations of 5, 25, 50, and 100 μM in PBS and sat at room temperature overnight before measurement. Some samples were kept in 5% C02 at 37° C. for 16 h before DLS measurement. Hydrodynamic diameter results of the sample of 5 μM concentration were reported because they were not affected by the used sample concentrations. Hydrodynamic diameters were presented using the size-by-number distribution approach. Z-average values and sizes-by-intensity data, however, were also reported.

DC2.4 cells = test: Presentation of the CTL epitope […] by DCs (flow cytometry); assay type: cell-based, murine; conditions: 16 h incubation with DC2.4 cells
Experimental: Presentation of the CTL epitope, […], by DCs. Cells of a murine DC line (DC2.4, a gift from K. Rock)^(32) were plated at 2.5×10^5/500 μL/well in 24-well plates. 500 μL of OVA, […] peptide (SEQ ID NO: 22), or iTEPB-iTEPA-pOVA NP (SEQ ID NO: 56) (iTEP-pOVA NP hereafter) were dissolved in cell culture media and added to the wells containing DCs. The cells were further cultured for 16 hrs. at 37° C. with 5% CO2 before they were collected and washed with PBS. The MHC class I complex, H-2kb/[…] presented on DC surface was stained with a PE-tagged monoclonal antibody 25-D1.16 (Biolegend, 1:100 dilution) and quantified with flow cytometry (5×10^4 events collected per sample). The data are presented as MFI normalized to the MFI of untreated DC2.4 cells.
Presentation of […] epitope vaccine by DCs. The presentation was studied as previously described (Cho et al., J Drug Target, 2015; p 1-12). The concentration of iTEP-vaccine fusions (NPs) used in this experiment was 5 μM. The results of presentation were shown as mean fluorescence intensity (MFI) of 5000 treated, live cells in a given treatment, which were normalized to the MFI value of untreated DC2.4 cells.

B3Z cells = test: B3Z CD8+ T cell hybridoma activation assay; assay type: cell-based; conditions: for activation of B3Z cells: DC2.4 cells pre-incubated with antigen
Experimental: B3Z CD8+ T cell hybridoma activation assay. B3Z cells (a gift from N. Shastri) are a CD8+ T-cell hybridoma engineered to secrete β-galactosidase when their T-cell receptors are engaged with an […]:H2K^b complex.^(33) To do this assay, 1×10^5 DC2.4 cells/well were set in 96-well plates. OVA, […] peptide (SEQ ID NO: 22), and iTEP-pOVA NP (SEQ ID NO: 56) at indicated concentrations were loaded into the cell culture for 16 hours and then washed away. 1×10^5 B3Z cells/well were added to the DC2.4 cell culture and co-cultured with DC2.4 cells for 24 hours. The cells were washed with PBS before 100 μL of lysis buffer (PBS with 100 mM 2-mercaptoethanol, 9 mM MgCl2, 0.125% NP-40) together with 0.15 mM chlorophenol red β-galactoside were added into the wells. After the plates were incubated at 37° C. for 4 hours, the reaction was stopped with 50 μL/well of 15 mM EDTA and 300 mM glycine. The OD at 570 nm was measured and the OD at 630 nm was used as reference. The OD was used as an indicator as activation status of B3Z cells.
Activation of B3Z hybridoma (CD8+T) cells. This assay was done with a protocol described previously (Cho et al., J Drug Target, 2015; p 1-12).

[2] = SDS-PAGE analysis of NPs after GSH treatment; assay type: physicochemical; conditions: GSH overnight, non-reducing gels
Experimental: SDS-PAGE was used to analyze responses of the RED-NP, the MS-NP, and the ST-NP to the treatment of 1 mM GSH. 1 mM but not 10 μM of GSH reduced disulfide bonds inside RED-NP. A large fraction of polymers of the RED-NP fusion (iTEPB70-iTEPA28-(G8C)4-pOVA; (SEQ ID NO: 61)) became monomers due to the treatment of 1 mM GSH, showing as a 50-kDa band on the gel. In contrast, GSH had no effect on polymerization status of the fusions of MS-NP and ST-NP. Non-reducing gels and 25 μg of each fusion were used for the analysis.

[3] = after 16 h incubation at 37° C.
[4] = after 16 h incubation in 5% CO2 at 37° C.
[5] = after the 16 h incubation at 37° C.

B1: RED-NP: reductive-environment dependable NP, disulfide stabilized fusion iTEPB70-iTEPA28-(G8C)4-pOVA (SEQ ID NO: 61) (protein)
chain: GGAGVPGGAGVPGGAGVPGGAGVPGGAGVPGGAGVPGGAGVPGGAGVPGGAGVPGGAGVPGGAGVPGGAGVPGGAGVPGGAGVPGGAGVPGGAGVPGGAGVPGGAGVPGGAGVPGGAGVPGGAGVPGGAGVPGGAGVPGGAGVPGGAGVPGGAGVPGGAGVPGGAGVPGGAGVPGGAGVPGGAGVPGGAGVPGGAGVPGGAGVPGGAGVPGGAGVPGGAGVPGGAGVPGGAGVPGGAGVPGGAGVPGGAGVPGGAGVPGGAGVPGGAGVPGGAGVPGGAGVPGGAGVPGGAGVPGGAGVPGGAGVPGGAGVPGGAGVPGGAGVPGGAGVPGGAGVPGGAGVPGGAGVPGGAGVPGGAGVPGGAGVPGGAGVPGGAGVPGGAGVPGGAGVPGGAGVPGGAGVPGGAGVPGGAGVPGGAGVPGGGVLPGVGGVLPGVGGVLPGVGGVLPGVGGVLPGVGGVLPGVGGVLPGVGGVLPGVGGVLPGVGGVLPGVGGVLPGVGGVLPGVGGVLPGVGGVLPGVGGVLPGVGGVLPGVGGVLPGVGGVLPGVGGVLPGVGGVLPGVGGVLPGVGGVLPGVGGVLPGVGGVLPGVGGVLPGVGGVLPGVGGVLPGVGGVLPGVGGCGCGCGCGESIINFEKLTESIINFEKLTGG
hydrodynamic diameter by intensity [1, 3]: 70.99±17.52 nm
hydrodynamic diameter by number distribution [1, 4]: 53.05±12.38 nm
Z-average [1, 5]: 76.89 nm
hydrodynamic diameter by number distribution ([1]; before incubation (0 h), 5 μM): 61.94±12.71 nm
Z-average ([1]; before the incubation): 87.59 nm
hydrodynamic diameter by intensity ([1]; before the incubation (0 h)): 75.55±15.32 nm
presentation of SIINFEKL by DCs (DC2.4 cells): significantly better than that of the ST-NP
activation of B3Z cells (B3Z cells): failed to activate B3Z cells as effectively as the MS-NP but, again, fared better than the ST-NP
response to GSH treatment (reduction of disulfide bonds, SDS-PAGE) [2]: can be reduced by 1 mM but not by 10 μM of GSH

B2: ST-NP: stable NP of the fusion iTEPB70-iTEPA56-pOVA (SEQ ID NO: 60) (protein)
chain: GGAGVPGGAGVPGGAGVPGGAGVPGGAGVPGGAGVPGGAGVPGGAGVPGGAGVPGGAGVPGGAGVPGGAGVPGGAGVPGGAGVPGGAGVPGGAGVPGGAGVPGGAGVPGGAGVPGGAGVPGGAGVPGGAGVPGGAGVPGGAGVPGGAGVPGGAGVPGGAGVPGGAGVPGGAGVPGGAGVPGGAGVPGGAGVPGGAGVPGGAGVPGGAGVPGGAGVPGGAGVPGGAGVPGGAGVPGGAGVPGGAGVPGGAGVPGGAGVPGGAGVPGGAGVPGGAGVPGGAGVPGGAGVPGGAGVPGGAGVPGGAGVPGGAGVPGGAGVPGGAGVPGGAGVPGGAGVPGGAGVPGGAGVPGGAGVPGGAGVPGGAGVPGGAGVPGGAGVPGGAGVPGGAGVPGGAGVPGGAGVPGGAGVPGGAGVPGGAGVPGGGVLPGVGGVLPGVGGVLPGVGGVLPGVGGVLPGVGGVLPGVGGVLPGVGGVLPGVGGVLPGVGGVLPGVGGVLPGVGGVLPGVGGVLPGVGGVLPGVGGVLPGVGGVLPGVGGVLPGVGGVLPGVGGVLPGVGGVLPGVGGVLPGVGGVLPGVGGVLPGVGGVLPGVGGVLPGVGGVLPGVGGVLPGVGGVLPGVGGGGGGGGGCGGGGGGGGCGGGGGGGGCGGGGGGGGCGESIINFEKLTESIINFEKLTGG
Stability [1]: ++
hydrodynamic diameter by intensity [1, 3]: 74.45±18.99 nm
hydrodynamic diameter by number distribution [1, 4]: 55.36±12.88 nm
Z-average [1, 5]: 70.42 nm
hydrodynamic diameter by number distribution ([1]; before incubation (0 h), 5 μM): 56.01±13.54 nm
Z-average ([1]; before the incubation): 74.59 nm
hydrodynamic diameter by intensity ([1]; before the incubation (0 h)): 78.56±21.60 nm
presentation of SIINFEKL by DCs (DC2.4 cells): significantly weaker presentation than the MS-NP
activation of B3Z cells (B3Z cells): much less robust in activating B3Z cells than the MS-NP
response to GSH treatment (reduction of disulfide bonds, SDS-PAGE) [2]: did not respond to the treatment

B3: G(GAGVPG)70G(GVLPGVG)28G(ESIINFEKLT)2GG (protein)
chain: GGAGVPGGAGVPGGAGVPGGAGVPGGAGVPGGAGVPGGAGVPGGAGVPGGAGVPGGAGVPGGAGVPGGAGVPGGAGVPGGAGVPGGAGVPGGAGVPGGAGVPGGAGVPGGAGVPGGAGVPGGAGVPGGAGVPGGAGVPGGAGVPGGAGVPGGAGVPGGAGVPGGAGVPGGAGVPGGAGVPGGAGVPGGAGVPGGAGVPGGAGVPGGAGVPGGAGVPGGAGVPGGAGVPGGAGVPGGAGVPGGAGVPGGAGVPGGAGVPGGAGVPGGAGVPGGAGVPGGAGVPGGAGVPGGAGVPGGAGVPGGAGVPGGAGVPGGAGVPGGAGVPGGAGVPGGAGVPGGAGVPGGAGVPGGAGVPGGAGVPGGAGVPGGAGVPGGAGVPGGAGVPGGAGVPGGAGVPGGAGVPGGAGVPGGAGVPGGAGVPGGESIINFEKLTESIINFEKLTGG
mean diameter (DLS) ([1]; 5 μM in PBS, 37° C., by number): 81.2±14.2 nm
mean diameter / size (DLS) ([1]; 25 μM in PBS, 37° C., by number): 71.9±20.8 nm
hydrodynamic diameter by number distribution [1, 4]: 8.39±1.20 nm
Z-average [1, 5]: 422.90 nm
hydrodynamic diameter by number distribution ([1]; before incubation (0 h), 5 μM): 71.94±20.81 nm
Z-average ([1]; before the incubation): 101.00 nm
hydrodynamic diameter by intensity ([1]; before the incubation (0 h)): 111.90±35.02 nm
presentation of SIINFEKL by DCs (DC2.4 cells): significantly more
B3Z activity, fold more active than DC-treated B3Z cells (B3Z cells): 4.38 fold
B3Z activity, fold more active than OVA/DC-treated B3Z cells (B3Z cells): 3.81 fold
B3Z activity, fold more active than iTEPB-pOVA/DC-treated B3Z cells (B3Z cells): 2.9 fold
response to GSH treatment (reduction of disulfide bonds, SDS-PAGE) [2]: did not respond to the treatment
